{"source": "paper PMC3020742", "about": "(The Journal of Biological Chemistry, 2010)", "binders": {"B1": {"name": "Renilla luciferase-tagged IRAK4 DD (residues 1-106) (domain or fragment)", "chain": "MNKPITPSTYVRCLNVGLIRKLSDFIDPQEGWKKLAVAIKKPSGDDRYNQFHIRRFEALLQTGKSPTSELLFDWGTTNCTVGDLVDLLIQNEFFAPASLLLPDAVP"}, "B2": {"name": "MyD88 R98C DD, purified from bacteria (domain or fragment)", "chain": "SLPLAALNMRVRRRLSLFLNVRTQVAADWTALAEEMDFEYLEIRQLETQADPTGRLLDAWQGRPGASVGRLLELLTKLGCDDVLLELGPSI"}}, "key": {"[1]": {"molecular_target": "MyD88 R98C DD-ID (residues 1-156), Protein A-tagged (LUMIER) (human, UniProt Q99836 1-156, R98C)", "sequence (Q99836 1-156 R98C)": "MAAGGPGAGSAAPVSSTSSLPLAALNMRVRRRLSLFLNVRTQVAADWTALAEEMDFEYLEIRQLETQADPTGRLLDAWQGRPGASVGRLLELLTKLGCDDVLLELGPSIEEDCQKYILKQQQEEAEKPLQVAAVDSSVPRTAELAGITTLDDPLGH", "experiment": "LUMIER"}, "[2]": {"molecular_target": "MyD88 S34Y DD-ID (residues 1-156), Protein A-tagged (LUMIER) (human, UniProt Q99836 1-156, S34Y)", "sequence (Q99836 1-156 S34Y)": "as the sequence (Q99836 1-156 R98C) above, with S34Y, C98R counted along it", "experiment": "LUMIER"}, "SEC": {"molecular_target": "the molecule itself", "experiment": "SEC"}}, "data": [{"binder": "B1", "values": [{"measurement": "fold reduction of binding against WT DD", "setting": "[1]", "value": "> 10", "unit": "fold"}, {"measurement": "fold reduction of binding against WT DD", "setting": "[2]", "value": "> 10", "unit": "fold"}]}, {"binder": "B2", "values": [{"measurement": "stoichiometry N", "setting": "SEC", "value": 2}]}]}
